Legend:
[1] = molecular target: mesothelin as expressed on the plasma membrane of human cells (HeLa, OVCAR-3, SK-OV-3, A1847) (human) (UniProt Q13421); assay: flow cytometry on HeLa cells, chemically biotinylated antibody, PE-streptavidin, Lineweaver-Burk plot
[2] = molecular target: mesothelin as expressed on the plasma membrane of human cells (HeLa, OVCAR-3, SK-OV-3, A1847) (human) (UniProt Q13421); assay: flow cytometry on Hela cells, chemically biotinylated mAb K1, detection with PE streptavidin [continued) C]
[3] = molecular target: T1, mesothelin as expressed on the plasma membrane of human cells (HeLa, OVCAR-3, SK-OV-3, A1847) (human, UniProt Q13421 296-598); assay: flow cytometry on HeLa cells, chemically biotinylated nanobody, PE-streptavidin, Lineweaver-Burk plot
T1 construct: whole, on cells; also called cellularly expressed mesothelin; cell-surface mesothelin
Experimental: (§1) FIG. 4: Affinity determination of nanobodies for mesothelin as expressed on the plasma membrane of cells. Hela cells were incubated with serial dilutions of in vitro biotinylated anti-mesothelin Nb-A1 (A), Nb-C6 (B) or commercial mAb K1 antibody (•; (C)). Bound antibodies were detected by flow cytometry using PE-conjugated streptavidin. Insets are Lineweaver-Burk plots used to determine the dissociation constant. Error bars represent the standard deviation of experiments performed in triplicate.
(§2) The affinity of Nb-A1 and Nb-C6 for cellularly expressed mesothelin was determined by flow cytometry using HeLa cells for the antigen as described previously; Even-Desrumeaux et al., Mol Biosyst 8(2012), 2385-2394. Briefly, binding to HeLa cells was detected using flow cytometry after incubation with various concentrations of biotinylated nanobodies followed by PE-labeled streptavidin. Apparent KD values were determined by the equation KD=a*Fₘₐₓ in which (a) is the regression line and Fₘₐₓ is the maximum of fluorescence.

[4] = molecular target: T1, mesothelin as expressed on the plasma …; assay: flow cytometry on Hela cells, chemically biotinylated Nb-A1, detection with PE streptavidin
Experimental: as §1, §2

mesothelin as expressed on the plasma membrane of human cells (HeLa, OVCAR-3, SK-OV-3, A1847) (human), sequence (Q13421 other isoform, or with tags, fused parts or gaps limits assumed): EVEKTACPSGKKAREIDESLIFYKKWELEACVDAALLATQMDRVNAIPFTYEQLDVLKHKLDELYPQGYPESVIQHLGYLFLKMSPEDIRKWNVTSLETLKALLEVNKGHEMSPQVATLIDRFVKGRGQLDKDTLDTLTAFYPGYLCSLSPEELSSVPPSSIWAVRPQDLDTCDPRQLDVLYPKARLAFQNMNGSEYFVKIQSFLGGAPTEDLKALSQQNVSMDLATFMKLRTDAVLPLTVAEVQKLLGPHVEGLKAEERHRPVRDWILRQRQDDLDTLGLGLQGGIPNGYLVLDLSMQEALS
T1 sequence (Q13421 other isoform, or with tags, fused parts or gaps limits assumed): as above

Molecule | Kd [1] | EC50 (read off the curve) [2] | Kd [3] | EC50 (read off the curve) [4]
anti-mesothelin mouse monoclonal antibody K1 (Santa Cruz Biotechnology) | 2 nM | 2 nM |  | 
Nb-A1 (nanobody A1, comprising amino acid sequence SEQ ID NO:1) (VHH, Llama VHH made in the periplasm of E. coli with a C-terminal hexahistidine tag; For the KD measurement it was chemically biotinylated (NHS-PEO4-biotin); not shown: C-terminal hexahistidine tag, named in words only) VHH: QVQLVQSGGGLVHPGGSLRLSCAASGIDLSLYRMRWYRQAPGKERDLVALITDDGTSYYEDSVKGRFTITRDNPSNKVFLQMNSLKPEDTAVYYCNAETPLSPVNYWGQGTQVTVS |  |  | ~15 nM | ~20 nM

Source: US20180002439A1 (INSTITUT NATIONAL DE LA SANTE ET DE LA RECHERCHE MEDICALE …, published 2018)
